Consider five molecules from patent US20230203107A1, “PEPTIDE FOR TREATING SEPSIS DERIVED FROM RV3364C PROTEIN OF MYCOBACTERIUM TUBERCULOSIS” (priority 2021, published 2023).

In test [1] the target is T1, interaction between SNX9 and Rv3364c (Homo sapiens, UniProt Q9Y5X1).
T1 construct: different regions 1-595, 1-250, 250-361, and 392-595 of SNX9; host or cells: 293 / HEK293T
Type of test: cell-based.

For test [2], the target named is T2, interaction between YEATS4 and Rv3364c (Homo sapiens, UniProt O95619).
T2 construct: host or cells: 293 / HEK293T
Format: cell-based.

Test [3] concerns the target T3, interaction between SNX9 and p47phox (Homo sapiens, UniProt Q9Y5X1).
T3 construct: different regions 1-595, 1-250, 250-361, and 392-595 of SNX9; p47phox plasmid as in Biomaterials 2016, 89, 1-13; host or cells: HEK293T
Format: cell-based. The following applies: HEK293T cells, Flag-Rv3364c 1, 5, 10 μg, 12 hours.

In test [4] the target is T4, ZBTB46 (zinc finger and BTB domain-containing 46), full-length recombinant human protein on the HuProt … (human, UniProt Q86UZ6 1-589).
T4 sequence: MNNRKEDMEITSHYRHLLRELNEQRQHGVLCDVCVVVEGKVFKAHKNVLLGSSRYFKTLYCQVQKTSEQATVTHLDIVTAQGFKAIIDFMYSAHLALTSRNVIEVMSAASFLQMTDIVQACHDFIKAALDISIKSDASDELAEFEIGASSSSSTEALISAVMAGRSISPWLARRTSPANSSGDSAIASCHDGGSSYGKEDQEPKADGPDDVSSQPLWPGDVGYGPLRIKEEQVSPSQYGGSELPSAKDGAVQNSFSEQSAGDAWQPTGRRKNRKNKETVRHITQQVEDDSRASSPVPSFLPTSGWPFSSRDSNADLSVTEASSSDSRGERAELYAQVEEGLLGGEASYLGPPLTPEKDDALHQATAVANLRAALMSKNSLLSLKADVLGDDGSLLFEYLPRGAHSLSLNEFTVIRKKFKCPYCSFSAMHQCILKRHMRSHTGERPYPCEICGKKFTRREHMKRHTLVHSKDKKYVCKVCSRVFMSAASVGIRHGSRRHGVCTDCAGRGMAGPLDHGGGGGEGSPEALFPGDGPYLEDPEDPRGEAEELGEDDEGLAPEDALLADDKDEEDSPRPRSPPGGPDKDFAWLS
The test can be described thus: HuProt human proteome microarray, biotinylated rRv3364c, streptavidin Alexa Fluor 532.

Test [5] deals with YEATS4 (YEATS domain-containing protein 4), full-length recombinant human protein on the HuProt microarray (human, UniProt O95619 1-227). The description is as above.
In test [6] the target is SNX9 (sorting nexin 9), full-length recombinant human protein on the HuProt microarray (human, UniProt Q9Y5X1 1-595). The description is as above.
The target of test [7] is T5, endogenous EGFLAM of mouse macrophages (BMDM) (mouse, UniProt Q4VBE4 25-1017).
T5 sequence: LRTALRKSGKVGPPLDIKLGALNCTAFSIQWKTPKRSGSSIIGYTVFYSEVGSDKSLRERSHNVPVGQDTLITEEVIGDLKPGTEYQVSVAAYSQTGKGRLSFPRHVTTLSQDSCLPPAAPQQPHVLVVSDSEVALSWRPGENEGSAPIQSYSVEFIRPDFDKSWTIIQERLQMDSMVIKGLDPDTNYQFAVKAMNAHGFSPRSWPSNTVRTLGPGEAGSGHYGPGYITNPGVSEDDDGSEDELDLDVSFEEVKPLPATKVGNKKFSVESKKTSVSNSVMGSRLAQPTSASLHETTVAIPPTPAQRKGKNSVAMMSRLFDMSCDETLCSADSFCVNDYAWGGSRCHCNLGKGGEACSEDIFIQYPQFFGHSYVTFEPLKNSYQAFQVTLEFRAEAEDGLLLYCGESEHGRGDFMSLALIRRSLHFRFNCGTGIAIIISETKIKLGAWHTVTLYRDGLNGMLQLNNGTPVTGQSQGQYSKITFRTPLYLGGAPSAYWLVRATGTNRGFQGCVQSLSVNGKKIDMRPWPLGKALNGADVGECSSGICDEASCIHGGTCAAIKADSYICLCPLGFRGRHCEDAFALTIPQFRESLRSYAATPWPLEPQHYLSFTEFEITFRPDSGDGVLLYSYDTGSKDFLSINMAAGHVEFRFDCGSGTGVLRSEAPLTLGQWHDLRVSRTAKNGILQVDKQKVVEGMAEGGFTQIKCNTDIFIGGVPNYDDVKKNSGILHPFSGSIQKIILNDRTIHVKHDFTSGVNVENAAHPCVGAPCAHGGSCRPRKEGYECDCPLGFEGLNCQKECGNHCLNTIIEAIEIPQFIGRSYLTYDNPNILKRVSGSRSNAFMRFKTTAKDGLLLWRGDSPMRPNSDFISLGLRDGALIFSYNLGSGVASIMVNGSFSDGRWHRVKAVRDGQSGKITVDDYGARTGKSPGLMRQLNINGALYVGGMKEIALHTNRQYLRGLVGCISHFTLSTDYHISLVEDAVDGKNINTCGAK
The test can be described thus: anti-His co-IP from BMDM treated with rRv3364c, anti-EGFLAM blot.

In test [8] the target is T6, endogenous ZBTB46 of mouse macrophages (BMDM) (mouse, UniProt Q8BID6 1-600).
T6 sequence: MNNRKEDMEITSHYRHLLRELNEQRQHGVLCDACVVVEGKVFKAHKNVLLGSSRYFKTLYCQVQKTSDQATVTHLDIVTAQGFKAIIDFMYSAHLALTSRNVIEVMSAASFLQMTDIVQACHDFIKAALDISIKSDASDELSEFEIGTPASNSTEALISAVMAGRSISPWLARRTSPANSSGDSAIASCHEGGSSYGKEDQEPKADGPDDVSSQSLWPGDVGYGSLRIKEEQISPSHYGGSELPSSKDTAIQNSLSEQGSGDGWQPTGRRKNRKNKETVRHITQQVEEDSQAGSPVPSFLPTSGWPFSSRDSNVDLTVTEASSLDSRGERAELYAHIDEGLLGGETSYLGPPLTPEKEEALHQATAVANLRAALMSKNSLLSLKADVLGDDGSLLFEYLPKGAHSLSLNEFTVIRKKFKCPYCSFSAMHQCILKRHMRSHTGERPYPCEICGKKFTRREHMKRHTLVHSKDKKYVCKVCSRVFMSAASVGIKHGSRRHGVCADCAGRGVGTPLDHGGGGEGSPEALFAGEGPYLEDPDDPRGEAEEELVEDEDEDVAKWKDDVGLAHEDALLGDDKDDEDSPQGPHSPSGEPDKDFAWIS
The test can be described thus: anti-His co-IP from BMDM treated with rRv3364c, anti-ZBTB46 blot.

For test [9], the target named is endogenous YEATS4 of mouse macrophages (BMDM, Raw264.7) (mouse, UniProt Q9CR11 1-227). Nature of the test: anti-His co-IP from BMDM treated with 1 ug/ml rRv3364c, anti-YEATS4 blot.
The target in test [10] is T7, endogenous SNX9 of mouse macrophages (BMDM, Raw264.7) (mouse, UniProt Q91VH2 1-595).
T7 construct: also called SNC9
Nature of the test: anti-His co-IP from BMDM treated with 1 ug/ml rRv3364c, anti-SNX9 blot.

T1 sequence (Q9Y5X1 whole entry): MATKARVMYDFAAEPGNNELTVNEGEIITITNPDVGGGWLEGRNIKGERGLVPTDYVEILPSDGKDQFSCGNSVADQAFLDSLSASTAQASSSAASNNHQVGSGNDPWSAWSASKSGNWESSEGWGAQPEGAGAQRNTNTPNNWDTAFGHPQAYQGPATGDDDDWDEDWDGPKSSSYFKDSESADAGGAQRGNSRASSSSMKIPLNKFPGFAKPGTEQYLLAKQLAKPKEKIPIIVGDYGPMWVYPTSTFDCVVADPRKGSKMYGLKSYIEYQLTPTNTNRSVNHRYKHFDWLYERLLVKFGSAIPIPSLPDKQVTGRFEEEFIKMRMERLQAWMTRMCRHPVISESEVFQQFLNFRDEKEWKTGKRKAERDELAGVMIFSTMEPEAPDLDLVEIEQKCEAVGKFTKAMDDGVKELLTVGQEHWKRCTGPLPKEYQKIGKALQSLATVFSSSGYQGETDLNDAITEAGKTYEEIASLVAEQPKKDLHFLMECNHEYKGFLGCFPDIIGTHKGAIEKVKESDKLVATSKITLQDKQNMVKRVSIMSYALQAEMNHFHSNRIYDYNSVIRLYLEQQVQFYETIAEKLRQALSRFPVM
T7 sequence (Q91VH2 whole entry): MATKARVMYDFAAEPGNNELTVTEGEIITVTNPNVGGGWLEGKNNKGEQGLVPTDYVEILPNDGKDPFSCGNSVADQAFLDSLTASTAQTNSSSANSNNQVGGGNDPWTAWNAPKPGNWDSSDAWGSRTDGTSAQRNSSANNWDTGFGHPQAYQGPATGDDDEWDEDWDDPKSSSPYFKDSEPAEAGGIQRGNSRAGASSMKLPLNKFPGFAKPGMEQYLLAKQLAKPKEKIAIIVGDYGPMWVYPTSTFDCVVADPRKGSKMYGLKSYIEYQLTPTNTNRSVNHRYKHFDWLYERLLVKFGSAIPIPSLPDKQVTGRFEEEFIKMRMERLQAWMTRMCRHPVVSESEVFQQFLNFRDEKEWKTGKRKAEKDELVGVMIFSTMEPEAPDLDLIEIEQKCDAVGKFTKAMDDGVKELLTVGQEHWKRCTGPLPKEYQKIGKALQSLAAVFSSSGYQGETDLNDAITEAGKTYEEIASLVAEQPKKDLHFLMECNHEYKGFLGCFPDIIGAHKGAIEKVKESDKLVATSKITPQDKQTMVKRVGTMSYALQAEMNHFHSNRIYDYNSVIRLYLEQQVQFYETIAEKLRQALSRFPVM
T2 sequence (O95619 whole entry): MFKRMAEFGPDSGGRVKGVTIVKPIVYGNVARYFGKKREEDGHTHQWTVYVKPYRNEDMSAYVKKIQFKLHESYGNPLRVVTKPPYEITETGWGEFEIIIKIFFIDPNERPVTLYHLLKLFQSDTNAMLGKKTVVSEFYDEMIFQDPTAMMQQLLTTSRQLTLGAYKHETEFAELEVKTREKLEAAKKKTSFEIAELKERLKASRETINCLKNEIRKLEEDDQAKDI
Sequence of YEATS4 (YEATS domain-containing protein 4), full-length recombinant human protein on the HuProt microarray (O95619 whole entry, the tested form may be a part): as the sequence (O95619 whole entry) above
Sequence of endogenous YEATS4 of mouse macrophages (BMDM, Raw264.7) (Q9CR11 whole entry): as the sequence (O95619 whole entry) above, with A224T counted along it
Sequence of SNX9 (sorting nexin 9), full-length recombinant human protein on the HuProt microarray (Q9Y5X1 whole entry): as the sequence (Q9Y5X1 whole entry) above
T3 sequence (Q9Y5X1 whole entry): as above

On to “DWLVSKFARE [Tat-Rv3364c (11DWLVSKFARE20)]”, for which the “blocking of the interaction between SNX9 and Rv3364c” value in test [1] (293 cells with Myc-SNX9 and Flag-Rv3364c, peptide 5 μM, 12 hours) was “block the interaction between SNX9 and Rv3364c”.
“MKARLPDSPL [Tat-Rv3364c (1MKARLPDSPL10)]”: in [2], the “blocking of the interaction between YEATS4 and Rv3364c” value was “block the interaction between YEATS4 and Rv3364c”.
Turning to “Rv3364c: Rv3364c protein of Mycobacterium tuberculosis, expressed in 293T cells from a Flag-tagged plasmid”, in test [3], the “interaction between SNX9 and p47phox” value is given as “decreased as the amount of Rv3364c increased”.
Take WLVSKF (Rv3364c(12-17 aa)) [12WLVSKF17]: the “region of Rv3364c required for interaction with SNX9” value in [1] (FIG. 5) is “minimum peptide essential for interaction with SNX9”.

B1: recombinant Rv3364c (rRv3364c) protein, N-terminal 6xHis tag (other)
chain: MKARLPDSPLDWLVSKFAREVPGVAHALLVSVDGLPVAASEHLPRERADQLAAVTSGLASLAGGAAQLFDGGQVLQSVVEMQNGYLLLMQVGDGSALAALAATGCDIGQIGYEMAILVERVGGVVQSCRR
notes: also called His-rRv3364c; not shown: N-terminal 6xHis tag from the pRSFDuet-1 vector
With B1, the binding result in test [4] was “binds”; in test [5], “binds”; in test [6], “binds”; in [7], “no binding (tested: 1 ug/ml rRv3364c)”; in test [8], “no binding (tested: 1 ug/ml rRv3364c)”; in test [9] it was “binds”. For the same molecule, in test [10], the binding result is given as “binds”.
